Data from patent US20260069689A1 (Regeneron, published 2026).
Changes are numbered by the printed parent chain. Where two headings read alike, the source gives them in different places.

What was measured:
[1] = target: T1, human FcγR3a 176Val allotype receptor (human, UniProt P08637 17-254); assay: cell-based or functional assay
SARS-COV-2 RBD-MMH [2] = target: SARS-COV-2 RBD-MMH (SARS-CoV-2); assay: SPR 37C, run with dissociation at pH 5.0
SARS-COV-2 RBD-MMH [3] = target: SARS-COV-2 RBD-MMH (SARS-CoV-2); assay: SPR 37C
SARS-COV-2 RBD-MMH [4] = target: SARS-COV-2 RBD-MMH (SARS-CoV-2); assay: SPR 37C, run with dissociation at pH 7.4
[5] = target: T1, human FcγR3a 176Val allotype receptor; assay: cell-based or functional assay; remark: listed apart in the source

B1: mAb14289 (antibody)
heavy: not shown
light: EIVLTQSPGTLSLSPGERATLSCRASQSVSSYLAWYQQKPGQAPRLLIHGASSRATGIPDRFSGSGSGTDFTLTISRLEPEDFAVYYCQQYGSSFLTFGGGTKVEIKRTVAAPSVFIFPPSDEQLKSGTASVVCLLNNFYPREAKVQWKVDNALQSGNSQESVTEQDSKDSTYSLSSTLTLSKADYEKHKVYACEVTHQGLSSPVTKSFNRGEC
EC50 (M), Jurkat/CD20/spike [1]: 1.3e-10 M | Fold induction, Jurkat CD20 [1]: 1 fold | Fold induction, Jurkat/CD20/spike [1]: 6.3 fold | RBD.mmh Bound at pH 7.4 (RU) (SARS-COV-2 RBD-MMH [2]): 89.3 RU | koff (SARS-COV-2 RBD-MMH [2]): 0.0046 s⁻¹ | t½ (SARS-COV-2 RBD-MMH [2]): 2.5 min | t½ Ratio of pH 7.4 to pH 5.0 (SARS-COV-2 RBD-MMH [3]): 2.5 | RBD.mmh Bound at pH 7.4 (RU) (SARS-COV-2 RBD-MMH [4]): 86.1 RU | koff (SARS-COV-2 RBD-MMH [4]): 0.00185 s⁻¹

B2: mAb14255 (antibody)
heavy: not shown
light: QSALTQPASVSGSPGQSITISCTGTSSDVGSYNLVSWYQQHPGKAPKLMIYEDSKRPSGVANPFSGSKSGNTASLTISGLQAEDEADYYCSSYAGSSTWVFGGGTKLTVLGQPKAAPSVTLFPPSSEELQANKATLVCLISDFYPGAVTVAWKADSSPVKAGVETTTPSKQSNNKYAASSYLSLTPEQWKSHRSYSCQVTHEGSTVEKTVAPTECS
EC50 (M), Jurkat/CD20/spike [1]: 1.67e-10 M | Fold induction, Jurkat CD20 [1]: 1 fold | Fold induction, Jurkat/CD20/spike [1]: 9.5 fold | EC50 (M), Jurkat/CD20/spike [5]: 1.88e-10 M | Fold induction, Jurkat CD20 [5]: 1.1 fold | Fold induction, Jurkat/CD20/spike [5]: 3.2 fold | RBD.mmh Bound at pH 7.4 (RU) (SARS-COV-2 RBD-MMH [2]): 94.1 RU | koff (SARS-COV-2 RBD-MMH [2]): 0.00635 s⁻¹ | t½ (SARS-COV-2 RBD-MMH [2]): 1.8 min | t½ Ratio of pH 7.4 to pH 5.0 (SARS-COV-2 RBD-MMH [3]): 1.3 | RBD.mmh Bound at pH 7.4 (RU) (SARS-COV-2 RBD-MMH [4]): 97.5 RU | koff (SARS-COV-2 RBD-MMH [4]): 0.00493 s⁻¹

B3: mAb14315 (antibody)
heavy: not shown
light: EIVLTQSPGTLSLSPGERATLSCRASQSVSSNYLAWYQQKPGQAPRLLIYGASSRATGIPERFSGSGSGTDFTLTISRLEPEDFAVYYCQQYGSSLYTFGQGTKLEIKRTVAAPSVFIFPPSDEQLKSGTASVVCLLNNFYPREAKVQWKVDNALQSGNSQESVTEQDSKDSTYSLSSTLTLSKADYEKHKVYACEVTHQGLSSPVTKSFNRGEC
EC50 (M), Jurkat/CD20/spike [1]: 6.24e-11 M | Fold induction, Jurkat CD20 [1]: 1.1 fold | Fold induction, Jurkat/CD20/spike [1]: 9.3 fold | RBD.mmh Bound at pH 7.4 (RU) (SARS-COV-2 RBD-MMH [2]): 101 RU | koff (SARS-COV-2 RBD-MMH [2]): 0.0007 s⁻¹ | t½ (SARS-COV-2 RBD-MMH [2]): 16.5 min | t½ Ratio of pH 7.4 to pH 5.0 (SARS-COV-2 RBD-MMH [3]): 0.7 | RBD.mmh Bound at pH 7.4 (RU) (SARS-COV-2 RBD-MMH [4]): 83.3 RU | koff (SARS-COV-2 RBD-MMH [4]): 0.00098 s⁻¹

B4: mAb14280 (antibody)
heavy: not shown
light: QSALTQPPSASGSPGQSVTISCTGTSSDVGGYNFVSWYQQHPGKAPKLMIYEVSKRPSGVPDRFSGSKSGNTASLTVSGLQAEDEADYYCSSYAGSNNFVFGTGTKVTVLGQPKAAPSVTLFPPSSEELQANKATLVCLISDFYPGAVTVAWKADSSPVKAGVETTTPSKQSNNKYAASSYLSLTPEQWKSHRSYSCQVTHEGSTVEKTVAPTECS
EC50 (M), Jurkat/CD20/spike [1]: 2.67e-10 M | Fold induction, Jurkat CD20 [1]: 1.1 fold | Fold induction, Jurkat/CD20/spike [1]: 13.5 fold | RBD.mmh Bound at pH 7.4 (RU) (SARS-COV-2 RBD-MMH [2]): 61.7 RU | koff (SARS-COV-2 RBD-MMH [2]): 0.0103 s⁻¹ | t½ (SARS-COV-2 RBD-MMH [2]): 1.1 min | t½ Ratio of pH 7.4 to pH 5.0 (SARS-COV-2 RBD-MMH [3]): 0.5 | RBD.mmh Bound at pH 7.4 (RU) (SARS-COV-2 RBD-MMH [4]): 72.4 RU | koff (SARS-COV-2 RBD-MMH [4]): 0.024 s⁻¹

B5: mAb14283 (antibody)
heavy: not shown
light: QSALTQPASVSGSPGQSTTISCTGTSSDVGGYNYVSWYQQYPGKAPKLMIYDVTNRPSGVSHRFSGSKSGNTASLTISGLQAEDEADYYCSSYTSSSTVIFGGGTKLTVLGQPKAAPSVTLFPPSSEELQANKATLVCLISDFYPGAVTVAWKADSSPVKAGVETTTPSKQSNNKYAASSYLSLTPEQWKSHRSYSCQVTHEGSTVEKTVAPTECS
EC50 (M), Jurkat/CD20/spike [1]: 1.39e-10 M | Fold induction, Jurkat CD20 [1]: 1.1 fold | Fold induction, Jurkat/CD20/spike [1]: 9.1 fold | RBD.mmh Bound at pH 7.4 (RU) (SARS-COV-2 RBD-MMH [2]): 91.7 RU | koff (SARS-COV-2 RBD-MMH [2]): 0.00512 s⁻¹ | t½ (SARS-COV-2 RBD-MMH [2]): 2.3 min | t½ Ratio of pH 7.4 to pH 5.0 (SARS-COV-2 RBD-MMH [3]): 3 | RBD.mmh Bound at pH 7.4 (RU) (SARS-COV-2 RBD-MMH [4]): 87.7 RU | koff (SARS-COV-2 RBD-MMH [4]): 0.00169 s⁻¹

B6: mAb14286 (antibody)
heavy: not shown
light: B5 light with S13Y, T18I, Y41H, Y51F, T54S, H62N, I77F, V99L, I100V
EC50 (M), Jurkat/CD20/spike [1]: 2.04e-10 M | Fold induction, Jurkat CD20 [1]: 1 fold | Fold induction, Jurkat/CD20/spike [1]: 11 fold | RBD.mmh Bound at pH 7.4 (RU) (SARS-COV-2 RBD-MMH [2]): 82.4 RU | koff (SARS-COV-2 RBD-MMH [2]): 0.00664 s⁻¹ | t½ (SARS-COV-2 RBD-MMH [2]): 1.7 min | t½ Ratio of pH 7.4 to pH 5.0 (SARS-COV-2 RBD-MMH [3]): 0.7 | RBD.mmh Bound at pH 7.4 (RU) (SARS-COV-2 RBD-MMH [4]): 84.3 RU | koff (SARS-COV-2 RBD-MMH [4]): 0.00968 s⁻¹

B7: mAb14294 (antibody)
heavy: not shown
light: EIVLTQSPGTLSLSPGERATLSCRASQSVSSSQLAWYQQKPGQAPRLLIYGASSRATGIPDRFSGSGSGTDFTLTISRLEPEDFAVYYCQQYDSFGQGTKLEIKRTVAAPSVFIFPPSDEQLKSGTASVVCLLNNFYPREAKVQWKVDNALQSGNSQESVTEQDSKDSTYSLSSTLTLSKADYEKHKVYACEVTHQGLSSPVTKSFNRGEC
EC50 (M), Jurkat/CD20/spike [1]: 6.04e-11 M | Fold induction, Jurkat CD20 [1]: 1 fold | Fold induction, Jurkat/CD20/spike [1]: 10.5 fold | RBD.mmh Bound at pH 7.4 (RU) (SARS-COV-2 RBD-MMH [2]): 97.6 RU | koff (SARS-COV-2 RBD-MMH [2]): 0.000452 s⁻¹ | t½ (SARS-COV-2 RBD-MMH [2]): 25.5 min | t½ Ratio of pH 7.4 to pH 5.0 (SARS-COV-2 RBD-MMH [3]): 0.5 | RBD.mmh Bound at pH 7.4 (RU) (SARS-COV-2 RBD-MMH [4]): 83.2 RU | koff (SARS-COV-2 RBD-MMH [4]): 0.00092 s⁻¹

B8: mAb14284 (antibody)
heavy: not shown
light: QSALTQPASVSGSPGQSITISCTGTSSDLGVFNYVSWYQQHPGKAPKLMIYEVTNRPSGVSNRFSGSKSGNTASLTISGLQAEDEADYYCSSYTTSSTVFGGGTKLTVLGQPKAAPSVTLFPPSSEELQANKATLVCLISDFYPGAVTVAWKADSSPVKAGVETTTPSKQSNNKYAASSYLSLTPEQWKSHRSYSCQVTHEGSTVEKTVAPTECS
notes: also called REGN14284
EC50 (M), Jurkat/CD20/spike [1]: 1.56e-10 M | Fold induction, Jurkat CD20 [1]: 1.1 fold | Fold induction, Jurkat/CD20/spike [1]: 9 fold | RBD.mmh Bound at pH 7.4 (RU) (SARS-COV-2 RBD-MMH [2]): 159 RU | koff (SARS-COV-2 RBD-MMH [2]): 0.000736 s⁻¹ | t½ (SARS-COV-2 RBD-MMH [2]): 15.7 min | t½ Ratio of pH 7.4 to pH 5.0 (SARS-COV-2 RBD-MMH [3]): 1.2 | RBD.mmh Bound at pH 7.4 (RU) (SARS-COV-2 RBD-MMH [4]): 147 RU | koff (SARS-COV-2 RBD-MMH [4]): 0.000624 s⁻¹

B9: mAb14282 (antibody)
heavy: not shown
light: QSALTQPASVSGSPGQSITISCTGTSSDVGSYNLVSWYQQHPGKAPKLMIYELTKRPSGVSNRFSGSKSGNTASLTISGLQAEDEADYYCSSYRGSVTDVVFGGGTKLTVLGQPKAAPSVTLFPPSSEELQANKATLVCLISDFYPGAVTVAWKADSSPVKAGVETTTPSKQSNNKYAASSYLSLTPEQWKSHRSYSCQVTHEGSTVEKTVAPTECS
EC50 (M), Jurkat/CD20/spike [1]: 2.57e-10 M | Fold induction, Jurkat CD20 [1]: 1.1 fold | Fold induction, Jurkat/CD20/spike [1]: 10.7 fold | RBD.mmh Bound at pH 7.4 (RU) (SARS-COV-2 RBD-MMH [2]): 62.4 RU | koff (SARS-COV-2 RBD-MMH [2]): 0.00671 s⁻¹ | t½ (SARS-COV-2 RBD-MMH [2]): 1.7 min | t½ Ratio of pH 7.4 to pH 5.0 (SARS-COV-2 RBD-MMH [3]): 0.5 | RBD.mmh Bound at pH 7.4 (RU) (SARS-COV-2 RBD-MMH [4]): 73.5 RU | koff (SARS-COV-2 RBD-MMH [4]): 0.0126 s⁻¹

B10: mAb14312 (antibody)
heavy: not shown
light: QSVLTQPPSVSGAPGQRVTISCTGSSSNIGAGDDVHWYQQLPGTAPKLLIYGNSNRPSGVPDRFSGSKSGTSASLAITGLQAEDEADYYCQSYDSSLSGSVVFGGGTKLTVLGQPKAAPSVTLFPPSSEELQANKATLVCLISDFYPGAVTVAWKADSSPVKAGVETTTPSKQSNNKYAASSYLSLTPEQWKSHRSYSCQVTHEGSTVEKTVAPTECS
EC50 (M), Jurkat CD20 [1]: 1.84e-08 M | EC50 (M), Jurkat/CD20/spike [1]: 1.68e-10 M | Fold induction, Jurkat CD20 [1]: 2 fold | Fold induction, Jurkat/CD20/spike [1]: 7.5 fold | RBD.mmh Bound at pH 7.4 (RU) (SARS-COV-2 RBD-MMH [2]): 96.7 RU | koff (SARS-COV-2 RBD-MMH [2]): 0.00558 s⁻¹ | t½ (SARS-COV-2 RBD-MMH [2]): 2.1 min | t½ Ratio of pH 7.4 to pH 5.0 (SARS-COV-2 RBD-MMH [3]): 6.4 | RBD.mmh Bound at pH 7.4 (RU) (SARS-COV-2 RBD-MMH [4]): 95.2 RU | koff (SARS-COV-2 RBD-MMH [4]): 0.000859 s⁻¹

B11: mAb14281 (antibody)
heavy: not shown
light: SSELTQDPAVSVALGQTVRITCQGDSLRSYYASWYQQKPGQAPVLVIYDKNNRPSGIPDRFSGSSSGNTASLTITGAQAEDEADYYCNSRDSSRNHLVVFGGGTKLTVLGQPKAAPSVTLFPPSSEELQANKATLVCLISDFYPGAVTVAWKADSSPVKAGVETTTPSKQSNNKYAASSYLSLTPEQWKSHRSYSCQVTHEGSTVEKTVAPTECS
EC50 (M), Jurkat/CD20/spike [1]: 1.65e-10 M | Fold induction, Jurkat CD20 [1]: 1.1 fold | Fold induction, Jurkat/CD20/spike [1]: 10.3 fold | RBD.mmh Bound at pH 7.4 (RU) (SARS-COV-2 RBD-MMH [2]): 51.7 RU | koff (SARS-COV-2 RBD-MMH [2]): 0.0117 s⁻¹ | t½ (SARS-COV-2 RBD-MMH [2]): 1 min | t½ Ratio of pH 7.4 to pH 5.0 (SARS-COV-2 RBD-MMH [3]): 1.8 | RBD.mmh Bound at pH 7.4 (RU) (SARS-COV-2 RBD-MMH [4]): 83.5 RU | koff (SARS-COV-2 RBD-MMH [4]): 0.00659 s⁻¹
